# Data published in article PMC6448830.
# Target: HA-2B4 (A. trivirgatus 2B4 ectodomain fused to human 2B4 from residue 219 to the stop codon), on COS-7 cells (Aotus trivirgatus | human) (UniProt Q9BZW8)
# Assay: flow cytometry on cells; cells incubated with the Fc fusion protein (8 μg/mL or a range of concentrations), then anti-human IgG (Fc specific) mAb and anti-mouse IgG-PE; 20% rabbit serum and 1% fetal bovine serum in PBS
substance,measurement,value
A43-Fc fusion protein,percent of 2B4-transfected COS-7 cells binding A43-Fc (highest dose),80.9%
